In article PMC10786891, “Massively parallel profiling of RNA-targeting CRISPR-Cas13d” one finds Kd data, which are given here for 33 molecules.

B1: target 1 insU 3' of 22,insG 3' of 2 (mixed)
RNA 1: CACCCGUGCAAAAAUGCAGGGGUCUAAAACUGAGCGGAUAACCUCUCUAUGG
RNA 2: GGGAAUGGAUCCACAUCUACGAAUUCGUACUCAUAGAGAGGUUAUCCGCUCGACCGAGAUCGGAAGAGCACACGU
B2: target 1 insU 3' of 5,insC 3' of 1 (mixed)
RNA 1: B1 RNA 1
RNA 2: GGGAAUGGAUCCACAUCUACGAAUUCGUACCAUAGAGAGGUUAUCCGUCUCACCCGAGAUCGGAAGAGCACACGU
B3: target 1 insU 3' of 17,insC 3' of 10 (mixed)
RNA 1: B1 RNA 1
RNA 2: GGGAAUGGAUCCACAUCUACGAAUUCGUACCAUAGUAGAGGUUCAUCCGCUCACCGAGAUCGGAAGAGCACACGU
B4: target 1 insG 3' of 7,insG 3' of 4 (mixed)
RNA 1: B1 RNA 1
RNA 2: B2 RNA 2 with C46G, G47C, U48G, U50G, C51U, A52C, C53A
B5: target 1 G13A,G15C (mixed)
RNA 1: B1 RNA 1
RNA 2: GGGAAUGGAUCCACAUCUACGAAUUCGUACCAUAGACAAGUUAUCCGCUCACCGAGAUCGGAAGAGCACACGU
B6: target 1 C4G,A18C (mixed)
RNA 1: B1 RNA 1
RNA 2: B5 RNA 2 with A34C, C37G, A39G, C48G
B7: target 1 insG 3' of 16,insG 3' of 6 (mixed)
RNA 1: B1 RNA 1
RNA 2: B3 RNA 2 with U36A, A37G, C44A, A45U, U46C, C48G
B8: target 1 C4G,C7A (mixed)
RNA 1: B1 RNA 1
RNA 2: B5 RNA 2 with C37G, A39G, C45A, C48G
B9: target 1 insU 3' of 22,insG 3' of 3 (mixed)
RNA 1: B1 RNA 1
RNA 2: B1 RNA 2 with C51G, G52C
B10: target 1 insU 3' of 20,insU 3' of 18 (mixed)
RNA 1: B1 RNA 1
RNA 2: B3 RNA 2 with A34U, G35A, A37G, G38A, A39G, G40A, U42G, C44U
B11: target 1 C2A,U3A (mixed)
RNA 1: B1 RNA 1
RNA 2: B5 RNA 2 with C37G, A39G, U49A, C50A
B12: target 1 insA 3' of 15,insA 3' of 5 (mixed)
RNA 1: B1 RNA 1
RNA 2: B3 RNA 2 with U36A, A37G, G38A, C44A, A45U, U46C, C48G, G49A
B13: target 1 C4G,C22G (mixed)
RNA 1: B1 RNA 1
RNA 2: B5 RNA 2 with C30G, C37G, A39G, C48G
B14: target 1 insC 3' of 18,insG 3' of 9 (mixed)
RNA 1: B1 RNA 1
RNA 2: B3 RNA 2 with G35C, U36G, C44A, A45G
B15: target 1 insA 3' of 22,insG 3' of 4 (mixed)
RNA 1: B1 RNA 1
RNA 2: B1 RNA 2 with U31A, U50G, C51U, G52C
B16: target 1 insC 3' of 22,insG 3' of 20 (mixed)
RNA 1: B1 RNA 1
RNA 2: GGGAAUGGAUCCACAUCUACGAAUUCGUACCCAGUAGAGAGGUUAUCCGCUCACCGAGAUCGGAAGAGCACACGU
B17: target 1 insC 3' of 13,insC 3' of 3 (mixed)
RNA 1: B1 RNA 1
RNA 2: B2 RNA 2 with G40C, U41G, A43U, U44A, C45U, G47C, U48G, A52C, C53A
B18: target 1 G15A,G17A (mixed)
RNA 1: B1 RNA 1
RNA 2: B5 RNA 2 with G35A, C37A, A39G
B19: target 1 insU 3' of 20,insU 3' of 4 (mixed)
RNA 1: B1 RNA 1
RNA 2: B1 RNA 2 with U31C, C32A, A33U, C51U, G52C
B20: target 1 insG 3' of 16,insC 3' of 3 (mixed)
RNA 1: B1 RNA 1
RNA 2: B1 RNA 2 with U31C, C32A, A33U, U34A, A35G, G36A, A37G, G52C
B21: target 1 U3A,U19G (mixed)
RNA 1: B1 RNA 1
RNA 2: B5 RNA 2 with U33G, C37G, A39G, U49A
B22: target 1 U11C,A14C (mixed)
RNA 1: B1 RNA 1
RNA 2: B5 RNA 2 with C37G, A38C, A39G, U41C
B23: target 1 insA 3' of 15,insC 3' of 3 (mixed)
RNA 1: B1 RNA 1
RNA 2: B2 RNA 2 with G39A, U41G, A43U, U44A, C45U, G47C, U48G, A52C, C53A
B24: target 1 A1U,C7U (mixed)
RNA 1: B1 RNA 1
RNA 2: B5 RNA 2 with C37G, A39G, C45U, A51U
B25: target 1 C6U,G15C (mixed)
RNA 1: B1 RNA 1
RNA 2: B5 RNA 2 with A39G, C46U
B26: target 1 insG 3' of 16,insU 3' of 5 (mixed)
RNA 1: B1 RNA 1
RNA 2: B3 RNA 2 with U36A, A37G, C44A, A45U, U46C, C48G, G49U
B27: target 1 insC 3' of 22,insU 3' of 21 (mixed)
RNA 1: B1 RNA 1
RNA 2: B16 RNA 2 with A33U, G34A
B28: target 1 insC 3' of 10,insU 3' of 2 (mixed)
RNA 1: B1 RNA 1
RNA 2: B2 RNA 2 with A43C, U44A, C45U, G47C, U48G, A52U, C53A
B29: target 1 insU 3' of 21,insA 3' of 19 (mixed)
RNA 1: B1 RNA 1
RNA 2: B16 RNA 2 with C32U, G34U, U35A
B30: target 1 U10G,G13A (mixed)
RNA 1: B1 RNA 1
RNA 2: B5 RNA 2 with C37G, U42G
B31: target 1 A9U,G17A (mixed)
RNA 1: B1 RNA 1
RNA 2: B5 RNA 2 with G35A, C37G, A39G, A43U
B32: target 1 insU 3' of 15,insU 3' of 6 (mixed)
RNA 1: B1 RNA 1
RNA 2: B3 RNA 2 with U36A, A37G, G38U, C44A, A45U, U46C, C48U
B33: target 1 C4U,C7G (mixed)
RNA 1: B1 RNA 1
RNA 2: B5 RNA 2 with C37G, A39G, C45G, C48U

Numbering of substitutions follows the chain as printed. Numbers in names are those of the source.

This data set has as its target T1, EsCas13d, nuclease-dead (Eubacterium siraeum, UniProt B0MS50, R295A;H300A;R849A;H854A).
T1 sequence: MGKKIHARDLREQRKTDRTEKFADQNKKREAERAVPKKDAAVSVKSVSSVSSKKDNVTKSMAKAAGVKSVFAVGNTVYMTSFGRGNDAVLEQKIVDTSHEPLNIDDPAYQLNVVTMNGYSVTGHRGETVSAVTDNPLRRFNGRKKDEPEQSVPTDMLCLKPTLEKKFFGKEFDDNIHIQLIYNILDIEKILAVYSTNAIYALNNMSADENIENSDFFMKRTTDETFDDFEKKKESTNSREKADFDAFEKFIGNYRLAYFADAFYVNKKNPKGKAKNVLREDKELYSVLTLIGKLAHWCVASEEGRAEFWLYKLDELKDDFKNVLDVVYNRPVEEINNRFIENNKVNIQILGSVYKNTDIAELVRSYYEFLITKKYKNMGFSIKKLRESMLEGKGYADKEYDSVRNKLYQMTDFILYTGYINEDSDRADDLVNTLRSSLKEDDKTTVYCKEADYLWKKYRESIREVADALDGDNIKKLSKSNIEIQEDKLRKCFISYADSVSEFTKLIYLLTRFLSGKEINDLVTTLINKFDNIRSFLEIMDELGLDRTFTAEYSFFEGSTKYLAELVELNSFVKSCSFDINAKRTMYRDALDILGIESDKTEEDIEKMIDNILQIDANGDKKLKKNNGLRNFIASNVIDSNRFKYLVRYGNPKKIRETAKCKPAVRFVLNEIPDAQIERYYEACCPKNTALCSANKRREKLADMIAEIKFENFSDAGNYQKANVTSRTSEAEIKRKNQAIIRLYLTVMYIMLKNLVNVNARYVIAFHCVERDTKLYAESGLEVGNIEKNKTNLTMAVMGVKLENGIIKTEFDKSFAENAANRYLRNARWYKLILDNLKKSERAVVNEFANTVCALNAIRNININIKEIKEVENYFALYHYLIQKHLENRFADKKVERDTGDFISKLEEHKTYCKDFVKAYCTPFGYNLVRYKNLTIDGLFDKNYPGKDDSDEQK
Put plainly: crRNA (strand 1, pre-loaded); Mg2+; 40 mM Tris-HCl pH 7.5, 150 mM NaCl, 6 mM MgCl2, 1 mM DTT, 0.1% Tween-20, 0.2 mg/ml BSA; 25 C; 10 min per concentration, then washed. Conditions: tags: His6-TwinStrep-SUMO cleaved; N-terminal SNAP kept (SNAP-Surface 488); label: 3' end held by stalled T7 RNA polymerase.
The term Kd denotes the constant that tells how readily two partners part at equilibrium. A high value points to weaker binding. Turning to B1, the Kd came to 29.1 ± 1.8 nM.
To B2 belongs 21.6 ± 2.4 nM; to B3, about 50 nM; to B4, 6.23 ± 0.3 nM.
For B5, the equilibrium dissociation constant (Kd) was 36 ± 9 nM.
B6 had a Kd of 44 ± 7 nM.
On to B7, for which binding was characterised by a dissociation constant (Kd) of 24.3 ± 1.9 nM.
In the case of B8, the equilibrium dissociation constant (Kd) turned out to be 7.1 ± 0.4 nM. Against the preceding molecule, the Kd is about 3.4-fold lower.
Regarding B9, binding was put at a Kd of 25.3 ± 1.7 nM.
On to B10, for which the Kd was 33 ± 5 nM.
With B11, binding was put at a Kd of 10 ± 0.8 nM. Compared with the last molecule, the Kd is about 3.3-fold lower.
Turning to B12, the Kd was 15.9 ± 2 nM.
Next, B13: 16.1 ± 2.3 nM; B14: 59 ± 11 nM; B15: 9.6 ± 0.6 nM.
Next, B16: 23.2 ± 2.3 nM; B17: 13.8 ± 0.7 nM; B18: 80 ± 15 nM.
For the molecule B19, the Kd turned out to be 10.6 ± 1.2 nM.
B20 gave a Kd of 12.4 ± 0.6 nM. This Kd and that of the molecule before are within 1.5-fold of each other.
B21 gave a Kd of 50 ± 5 nM.
For B22, the Kd came to 86 ± 22 nM.
For the molecule B23, the affinity, expressed as Kd, was 10.1 ± 1.3 nM.
The molecule B24 registered a Kd of 9.1 ± 1.3 nM.
B25 showed a Kd of 62 ± 7 nM.
B26 came in with a Kd of 15.5 ± 1.4 nM.
Next, B27: 17.1 ± 1 nM; B28: 23.9 ± 2.3 nM; B29: 55 ± 10 nM.
Turning to B30, binding was put at a Kd of 42 ± 15 nM.
Next, B31: 41 ± 5 nM; B32: 35.6 ± 3.2 nM.
As for B33, the Kd was found to be 10.4 ± 0.4 nM.
